Data: patent publication US20240241135A1 (SENBOLL BIOTECHNOLOGY, published 2024)

What was measured:
[1] = biological target: T1, recombinant human regenerating islet-derived protein 1α (REG1A) (human, UniProt P05451 23-166, limits assumed); assay: sandwich ELISA; capture 4H8F1; REG1A 1.23 ng/mL
T1 construct: also called recombinant human REG1A; recombinant REG1A
T1 sequence (looked up): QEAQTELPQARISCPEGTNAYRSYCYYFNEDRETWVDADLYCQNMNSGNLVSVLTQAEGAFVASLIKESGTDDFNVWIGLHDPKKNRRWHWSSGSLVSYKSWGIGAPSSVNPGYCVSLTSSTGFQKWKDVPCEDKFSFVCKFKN
Summary of the method: (§1)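 Plates were coated overnight at 4 °C with the capture monoclonal antibody in PBS and blocked for 2 h at 37 °C, after which recombinant human REG1A in basic diluent (100 μL per well) was incubated for 1 h at 37 °C. Bound protein was detected with a horseradish peroxidase-based detection antibody system and TMB substrate for 15 min at 37 °C, and 0.2M sulfuric acid stopped the reaction. The OD value from this sandwich ELISA is a background-corrected absorbance. The reading at 620/630 nm was subtracted from the reading at 450 nm.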

[2] = biological target: T1, recombinant human regenerating …; assay: sandwich ELISA; capture 4H8F1; REG1A 3.70 ng/mL
Summary of the method: as §1

[3] = biological target: T1, recombinant human regenerating …; assay: sandwich ELISA; capture 25F3C4; REG1A 1.23 ng/mL
Summary of the method: as §1

[4] = biological target: T1, recombinant human regenerating …; assay: sandwich ELISA; capture 25F3C4; REG1A 3.70 ng/mL
Summary of the method: as §1

[5] = biological target: T1, recombinant human regenerating …; assay: sandwich ELISA; capture 4H8F1; REG1A 11.11 ng/mL
Summary of the method: as §1

[6] = biological target: T1, recombinant human regenerating …; assay: sandwich ELISA; capture 4H8F1; REG1A 33.33 ng/mL
Summary of the method: as §1

[7] = biological target: T1, recombinant human regenerating …; assay: sandwich ELISA; capture 21B11D2; REG1A 1.23 ng/mL
Summary of the method: as §1

[8] = biological target: T1, recombinant human regenerating …; assay: sandwich ELISA; capture 21B11D2; REG1A 3.70 ng/mL
Summary of the method: as §1

[9] = biological target: T1, recombinant human regenerating …; assay: sandwich ELISA; capture 25F3C4; REG1A 11.11 ng/mL
Summary of the method: as §1

[10] = biological target: T1, recombinant human regenerating …; assay: sandwich ELISA; capture 25F3C4; REG1A 33.33 ng/mL
Summary of the method: as §1

[11] = biological target: T1, recombinant human regenerating …; assay: sandwich ELISA; capture 4H8F1; REG1A 100.00 ng/mL
Summary of the method: as §1

[12] = biological target: T1, recombinant human regenerating …; assay: sandwich ELISA; capture 11D11B11; REG1A 1.23 ng/mL
Summary of the method: as §1

[13] = biological target: T1, recombinant human regenerating …; assay: sandwich ELISA; capture 11D11B11; REG1A 3.70 ng/mL
Summary of the method: as §1

[14] = biological target: T1, recombinant human regenerating …; assay: sandwich ELISA; capture 12F12A10; REG1A 1.23 ng/mL
Summary of the method: as §1

[15] = biological target: T1, recombinant human regenerating …; assay: sandwich ELISA; capture 12F12A10; REG1A 3.70 ng/mL
Summary of the method: as §1

[16] = biological target: T1, recombinant human regenerating …; assay: sandwich ELISA; capture 21B11D2; REG1A 11.11 ng/mL
Summary of the method: as §1

[17] = biological target: T1, recombinant human regenerating …; assay: sandwich ELISA; capture 21B11D2; REG1A 33.33 ng/mL
Summary of the method: as §1

[18] = biological target: T1, recombinant human regenerating …; assay: sandwich ELISA; capture 25F3C4; REG1A 100.00 ng/mL
Summary of the method: as §1

[19] = biological target: T1, recombinant human regenerating …; assay: sandwich ELISA; capture 11D11B11; REG1A 11.11 ng/mL
Summary of the method: as §1

[20] = biological target: T1, recombinant human regenerating …; assay: sandwich ELISA; capture 11D11B11; REG1A 33.33 ng/mL
Summary of the method: as §1

[21] = biological target: T1, recombinant human regenerating …; assay: sandwich ELISA; capture 12F12A10; REG1A 11.11 ng/mL
Summary of the method: as §1

[22] = biological target: T1, recombinant human regenerating …; assay: sandwich ELISA; capture 12F12A10; REG1A 33.33 ng/mL
Summary of the method: as §1

[23] = biological target: T1, recombinant human regenerating …; assay: sandwich ELISA; capture 21B11D2; REG1A 100.00 ng/mL
Summary of the method: as §1

[24] = biological target: T1, recombinant human regenerating …; assay: sandwich ELISA; capture 11D11B11; REG1A 100.00 ng/mL
Summary of the method: as §1

[25] = biological target: T1, recombinant human regenerating …; assay: sandwich ELISA; capture 12F12A10; REG1A 100.00 ng/mL
Summary of the method: as §1

[26] = biological target: T1, recombinant human regenerating …; assay: sandwich ELISA; capture 4H8F1; REG1A 0 ng/mL (blank)
Summary of the method: as §1

[27] = biological target: T1, recombinant human regenerating …; assay: sandwich ELISA; capture 25F3C4; REG1A 0 ng/mL (blank)
Summary of the method: as §1

[28] = biological target: T1, recombinant human regenerating …; assay: sandwich ELISA; capture 21B11D2; REG1A 0 ng/mL (blank)
Summary of the method: as §1

[29] = biological target: T1, recombinant human regenerating …; assay: sandwich ELISA; capture 11D11B11; REG1A 0 ng/mL (blank)
Summary of the method: as §1

[30] = biological target: T1, recombinant human regenerating …; assay: sandwich ELISA; capture 12F12A10; REG1A 0 ng/mL (blank)
Summary of the method: as §1

B1: antibody 21B11D2 (antibody, mouse IgG2b, kappa, V domains shown)
VH: QAQLQQSGAELVRPGASVTLSCKASGYIFTDYEMHWVKQTPVHGLEWIGAIDPETGGTAYNQKFKGKARLTADKSSSTAYMELRSLTSEDSAVYYCTIYYTNHFDYWGQGTTLTVSS
VL: DVVMTQTPLSLPVSLGDQASISCRSSQSLVYSNGDTYLYWYLQKPGQSPKLLIYKVSNRFSGVPDRFSGSGSGTDFTLKISRVEAEDLGVYFCSQSTHVPLTFGAGTKLELKR
notes: Mouse monoclonal from hybridoma, stated mouse IgG1/Kappa; Used unlabelled as capture and biotin-labelled as detection antibody; also called 21B11D2-biotin
- OD value [1]: 0.072 OD
- OD value [2]: 0.068 OD
- OD value [3]: 0.066 OD
- OD value [4]: 0.068 OD
- OD value [5]: 0.07 OD
- OD value [6]: 0.073 OD
- OD value [7]: 0.066 OD
- OD value [8]: 0.069 OD
- OD value [9]: 0.069 OD
- OD value [10]: 0.071 OD
- OD value [11]: 0.08 OD
- OD value [12]: 0.07 OD
- OD value [13]: 0.06 OD
- OD value [14]: 1.18 OD
- OD value [15]: 2.38 OD
- OD value [16]: 0.069 OD
- OD value [17]: 0.071 OD
- OD value [18]: 0.073 OD
- OD value [19]: 0.066 OD
- OD value [20]: 0.063 OD
- OD value [21]: 2.89 OD
- OD value [22]: 3.21 OD
- OD value [23]: 0.068 OD
- OD value [24]: 0.065 OD
- OD value [25]: 3.35 OD
- OD value [26]: 0.069 OD
- OD value [27]: 0.068 OD
- OD value [28]: 0.073 OD
- OD value [29]: 0.068 OD
- OD value [30]: 0.068 OD
